Holding throughout (experiment): Kinase panel residual activity
Holding throughout (type): biochemical
What all share (conditions): compound at 1 micromolar

For data set [1], the target named is T1, EPH-B1 (Homo sapiens, UniProt P54762).
T1 sequence (P54762 18-984): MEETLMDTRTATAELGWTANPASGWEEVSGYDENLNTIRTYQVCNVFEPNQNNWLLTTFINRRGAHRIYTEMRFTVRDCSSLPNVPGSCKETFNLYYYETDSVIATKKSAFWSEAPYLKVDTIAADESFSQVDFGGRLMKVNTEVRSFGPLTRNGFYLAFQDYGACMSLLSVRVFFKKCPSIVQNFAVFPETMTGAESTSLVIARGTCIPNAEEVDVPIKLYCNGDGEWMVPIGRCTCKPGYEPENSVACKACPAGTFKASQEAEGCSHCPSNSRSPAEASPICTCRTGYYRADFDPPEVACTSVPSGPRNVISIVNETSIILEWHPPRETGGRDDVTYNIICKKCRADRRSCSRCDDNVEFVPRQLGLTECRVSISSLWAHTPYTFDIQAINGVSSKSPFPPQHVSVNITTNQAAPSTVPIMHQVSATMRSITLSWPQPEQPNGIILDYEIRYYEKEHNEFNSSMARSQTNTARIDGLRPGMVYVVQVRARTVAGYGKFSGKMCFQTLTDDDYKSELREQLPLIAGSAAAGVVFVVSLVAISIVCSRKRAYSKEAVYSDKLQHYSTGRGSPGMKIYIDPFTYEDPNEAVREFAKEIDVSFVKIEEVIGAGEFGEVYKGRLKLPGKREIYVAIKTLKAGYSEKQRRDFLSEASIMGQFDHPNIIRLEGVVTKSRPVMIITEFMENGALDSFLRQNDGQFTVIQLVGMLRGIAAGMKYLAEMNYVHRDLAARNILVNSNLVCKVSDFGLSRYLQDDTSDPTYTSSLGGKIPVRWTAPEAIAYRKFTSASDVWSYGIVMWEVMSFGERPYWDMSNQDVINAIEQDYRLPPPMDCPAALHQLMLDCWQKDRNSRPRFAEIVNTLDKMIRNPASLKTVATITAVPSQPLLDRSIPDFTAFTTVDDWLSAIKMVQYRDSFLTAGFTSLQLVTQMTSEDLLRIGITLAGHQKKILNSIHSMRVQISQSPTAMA

Data set [2] deals with TTBK1 (Homo sapiens, UniProt Q5TCY1).
TTBK1, sequence (Q5TCY1 whole entry, species assumed): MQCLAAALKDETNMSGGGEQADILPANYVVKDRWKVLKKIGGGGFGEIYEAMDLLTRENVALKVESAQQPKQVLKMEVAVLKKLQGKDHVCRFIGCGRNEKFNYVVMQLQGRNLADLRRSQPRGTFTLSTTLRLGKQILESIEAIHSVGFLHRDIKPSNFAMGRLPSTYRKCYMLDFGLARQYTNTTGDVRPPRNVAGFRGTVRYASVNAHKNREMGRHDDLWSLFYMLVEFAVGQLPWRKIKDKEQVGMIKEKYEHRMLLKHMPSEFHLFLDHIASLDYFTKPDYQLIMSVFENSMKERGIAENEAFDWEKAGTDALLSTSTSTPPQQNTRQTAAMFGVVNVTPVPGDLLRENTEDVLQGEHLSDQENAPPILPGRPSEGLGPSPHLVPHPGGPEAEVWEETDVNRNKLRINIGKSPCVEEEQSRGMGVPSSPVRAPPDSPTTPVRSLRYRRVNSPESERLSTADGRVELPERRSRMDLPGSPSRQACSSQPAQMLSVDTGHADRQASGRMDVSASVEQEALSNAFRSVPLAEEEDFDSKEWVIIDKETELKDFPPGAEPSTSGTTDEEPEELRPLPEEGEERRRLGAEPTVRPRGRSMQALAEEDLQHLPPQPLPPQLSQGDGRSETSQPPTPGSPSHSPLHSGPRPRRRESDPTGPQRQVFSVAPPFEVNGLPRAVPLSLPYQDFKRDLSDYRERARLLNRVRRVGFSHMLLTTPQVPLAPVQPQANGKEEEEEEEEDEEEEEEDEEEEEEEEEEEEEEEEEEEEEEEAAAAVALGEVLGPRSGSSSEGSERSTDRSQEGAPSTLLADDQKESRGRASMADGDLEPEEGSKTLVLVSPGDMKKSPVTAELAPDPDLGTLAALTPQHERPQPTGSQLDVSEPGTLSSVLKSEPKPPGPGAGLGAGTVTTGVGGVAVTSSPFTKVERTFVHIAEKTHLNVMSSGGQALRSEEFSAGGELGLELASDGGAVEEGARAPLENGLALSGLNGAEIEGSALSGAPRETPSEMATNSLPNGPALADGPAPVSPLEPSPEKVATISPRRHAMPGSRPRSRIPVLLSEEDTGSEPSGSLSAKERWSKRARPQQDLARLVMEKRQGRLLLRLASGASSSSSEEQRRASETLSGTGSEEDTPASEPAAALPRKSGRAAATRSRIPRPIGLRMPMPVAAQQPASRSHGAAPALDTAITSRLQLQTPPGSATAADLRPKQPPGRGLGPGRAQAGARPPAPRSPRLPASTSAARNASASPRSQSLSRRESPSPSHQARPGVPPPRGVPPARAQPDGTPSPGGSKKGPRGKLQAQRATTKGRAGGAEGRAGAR
For data set [3], the target named is S6K1 (Homo sapiens, UniProt P23443).
S6K1, sequence (P23443 whole entry, species assumed): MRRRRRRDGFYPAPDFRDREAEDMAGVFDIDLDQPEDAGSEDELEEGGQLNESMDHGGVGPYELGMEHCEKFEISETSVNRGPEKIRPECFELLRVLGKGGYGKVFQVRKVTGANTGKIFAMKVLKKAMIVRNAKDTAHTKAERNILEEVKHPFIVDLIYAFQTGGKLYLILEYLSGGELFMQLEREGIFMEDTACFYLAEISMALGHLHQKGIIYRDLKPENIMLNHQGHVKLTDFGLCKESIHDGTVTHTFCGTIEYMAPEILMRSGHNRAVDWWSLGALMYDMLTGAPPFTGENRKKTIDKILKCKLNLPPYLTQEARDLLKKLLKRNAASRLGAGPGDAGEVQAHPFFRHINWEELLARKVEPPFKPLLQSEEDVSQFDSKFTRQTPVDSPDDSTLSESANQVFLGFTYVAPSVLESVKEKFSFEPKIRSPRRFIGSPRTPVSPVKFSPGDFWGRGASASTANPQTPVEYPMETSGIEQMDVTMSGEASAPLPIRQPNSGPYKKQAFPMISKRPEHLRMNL
For data set [4], the target named is SRPK1 (Homo sapiens, UniProt Q96SB4).
Data set [5] addresses IGF-1R (Homo sapiens, UniProt P08069).
The target of data set [6] is CDK2-Cyclin A (Homo sapiens, UniProt P24941).
Data set [7] addresses CAMK1 (Homo sapiens, UniProt Q14012).
The target in data set [8] is T2, p38d MAPK (Homo sapiens, UniProt O15264).
T2 sequence (O15264 1-365): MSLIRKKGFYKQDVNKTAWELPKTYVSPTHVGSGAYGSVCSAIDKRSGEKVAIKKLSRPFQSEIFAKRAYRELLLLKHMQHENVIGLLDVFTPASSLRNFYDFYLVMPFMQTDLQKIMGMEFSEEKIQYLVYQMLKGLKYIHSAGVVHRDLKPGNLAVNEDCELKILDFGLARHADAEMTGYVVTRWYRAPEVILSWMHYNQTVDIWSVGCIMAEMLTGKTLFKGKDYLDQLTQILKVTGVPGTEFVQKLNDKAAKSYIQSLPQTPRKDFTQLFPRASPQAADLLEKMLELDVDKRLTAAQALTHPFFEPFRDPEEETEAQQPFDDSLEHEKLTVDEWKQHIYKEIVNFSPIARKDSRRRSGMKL

Data set [9] addresses ERK5 (Homo sapiens, UniProt Q13164).
Data set [10] concerns the target CK1γ2 (Homo sapiens, UniProt P78368).
Data set [11] has as its target T3, DYRK3 (Homo sapiens, UniProt O43781).
T3 sequence (O43781 1-588): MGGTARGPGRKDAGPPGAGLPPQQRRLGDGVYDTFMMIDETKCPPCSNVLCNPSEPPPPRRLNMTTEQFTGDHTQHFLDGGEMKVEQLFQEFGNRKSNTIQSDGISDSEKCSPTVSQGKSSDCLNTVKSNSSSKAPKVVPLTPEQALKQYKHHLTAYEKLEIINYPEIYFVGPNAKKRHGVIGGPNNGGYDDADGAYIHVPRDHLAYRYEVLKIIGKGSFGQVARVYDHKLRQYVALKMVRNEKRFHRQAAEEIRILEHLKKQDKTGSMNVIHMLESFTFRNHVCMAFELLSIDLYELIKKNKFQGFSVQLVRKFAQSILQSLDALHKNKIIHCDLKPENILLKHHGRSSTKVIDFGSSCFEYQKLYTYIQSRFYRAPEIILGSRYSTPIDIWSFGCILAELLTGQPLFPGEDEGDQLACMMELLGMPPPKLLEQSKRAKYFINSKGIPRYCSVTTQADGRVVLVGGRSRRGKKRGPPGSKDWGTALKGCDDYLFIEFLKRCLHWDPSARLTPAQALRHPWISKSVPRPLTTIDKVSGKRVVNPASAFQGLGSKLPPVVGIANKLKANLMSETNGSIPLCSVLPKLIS

Data set [12] has as its target JAK2 (Homo sapiens, UniProt O60674).

Where a SMILES comes first, the peptide text is derived from it. [ ]: non-standard residue; d: D form. The star is where a group is joined. X1 = O=C(CCCCCCCn1cnc2c(Br)c(Br)c(Br)c(Br)c21)*

ERK5, sequence (Q13164 whole entry, species assumed): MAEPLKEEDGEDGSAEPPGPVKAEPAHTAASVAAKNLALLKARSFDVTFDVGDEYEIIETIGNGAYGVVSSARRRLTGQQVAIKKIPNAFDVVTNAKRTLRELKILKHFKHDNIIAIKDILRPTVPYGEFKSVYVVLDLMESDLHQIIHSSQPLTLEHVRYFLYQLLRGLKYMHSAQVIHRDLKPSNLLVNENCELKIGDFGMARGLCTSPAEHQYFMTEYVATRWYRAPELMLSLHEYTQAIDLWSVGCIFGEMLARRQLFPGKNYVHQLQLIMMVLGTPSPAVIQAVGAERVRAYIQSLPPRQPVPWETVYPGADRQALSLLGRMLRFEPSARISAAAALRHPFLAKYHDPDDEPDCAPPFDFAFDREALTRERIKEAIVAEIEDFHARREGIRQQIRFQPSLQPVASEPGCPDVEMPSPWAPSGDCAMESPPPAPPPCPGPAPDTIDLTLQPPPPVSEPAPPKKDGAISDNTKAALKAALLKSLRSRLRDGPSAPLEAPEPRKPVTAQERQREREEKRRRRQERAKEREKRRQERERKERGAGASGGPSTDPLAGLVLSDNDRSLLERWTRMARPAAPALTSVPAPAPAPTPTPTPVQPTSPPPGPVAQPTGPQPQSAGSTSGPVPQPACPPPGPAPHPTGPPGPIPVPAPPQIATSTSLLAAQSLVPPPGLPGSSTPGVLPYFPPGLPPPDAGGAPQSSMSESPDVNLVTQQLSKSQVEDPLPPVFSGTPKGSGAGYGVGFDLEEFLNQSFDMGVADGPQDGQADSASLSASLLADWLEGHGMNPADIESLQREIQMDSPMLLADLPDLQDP
CK1γ2, sequence (P78368 whole entry): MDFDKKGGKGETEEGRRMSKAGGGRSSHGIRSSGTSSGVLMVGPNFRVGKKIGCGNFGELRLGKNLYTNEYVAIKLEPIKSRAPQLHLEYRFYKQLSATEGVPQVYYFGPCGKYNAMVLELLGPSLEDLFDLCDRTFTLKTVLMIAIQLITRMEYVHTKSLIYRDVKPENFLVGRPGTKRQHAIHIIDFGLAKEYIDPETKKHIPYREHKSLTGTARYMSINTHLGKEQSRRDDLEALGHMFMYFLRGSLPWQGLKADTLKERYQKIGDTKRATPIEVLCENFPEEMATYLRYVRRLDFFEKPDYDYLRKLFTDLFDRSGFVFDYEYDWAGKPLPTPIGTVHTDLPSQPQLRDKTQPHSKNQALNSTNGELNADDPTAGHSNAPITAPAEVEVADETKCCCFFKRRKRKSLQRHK
JAK2, sequence (O60674 whole entry, species assumed): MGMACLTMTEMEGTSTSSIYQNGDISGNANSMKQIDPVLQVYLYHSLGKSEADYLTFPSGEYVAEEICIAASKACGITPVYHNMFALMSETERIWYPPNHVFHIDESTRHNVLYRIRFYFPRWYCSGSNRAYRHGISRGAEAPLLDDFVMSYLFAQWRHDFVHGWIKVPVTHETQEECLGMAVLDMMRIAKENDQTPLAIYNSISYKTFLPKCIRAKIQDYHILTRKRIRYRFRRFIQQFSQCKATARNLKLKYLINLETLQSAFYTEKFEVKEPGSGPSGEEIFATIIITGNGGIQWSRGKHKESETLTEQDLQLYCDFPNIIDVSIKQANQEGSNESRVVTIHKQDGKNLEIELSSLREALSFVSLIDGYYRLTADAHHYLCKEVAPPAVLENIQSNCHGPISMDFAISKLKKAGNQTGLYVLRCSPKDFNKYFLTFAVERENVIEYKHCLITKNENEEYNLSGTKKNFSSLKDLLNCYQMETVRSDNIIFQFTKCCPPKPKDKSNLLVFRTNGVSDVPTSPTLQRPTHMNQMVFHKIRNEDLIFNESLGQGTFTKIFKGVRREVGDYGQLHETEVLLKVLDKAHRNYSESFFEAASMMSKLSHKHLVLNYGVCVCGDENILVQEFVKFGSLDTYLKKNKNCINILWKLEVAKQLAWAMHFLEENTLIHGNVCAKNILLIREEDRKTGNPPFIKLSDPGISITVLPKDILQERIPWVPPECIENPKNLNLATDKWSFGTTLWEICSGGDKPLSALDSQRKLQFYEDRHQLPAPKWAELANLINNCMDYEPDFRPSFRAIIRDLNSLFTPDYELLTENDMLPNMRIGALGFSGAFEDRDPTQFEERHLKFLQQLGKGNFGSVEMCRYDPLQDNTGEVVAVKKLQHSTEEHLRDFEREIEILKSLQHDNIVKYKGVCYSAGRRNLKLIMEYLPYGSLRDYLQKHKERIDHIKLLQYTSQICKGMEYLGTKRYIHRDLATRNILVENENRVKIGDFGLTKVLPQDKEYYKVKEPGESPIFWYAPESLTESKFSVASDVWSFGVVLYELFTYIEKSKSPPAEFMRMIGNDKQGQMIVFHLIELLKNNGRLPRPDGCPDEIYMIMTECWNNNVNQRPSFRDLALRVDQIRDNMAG
CAMK1, sequence (Q14012 whole entry): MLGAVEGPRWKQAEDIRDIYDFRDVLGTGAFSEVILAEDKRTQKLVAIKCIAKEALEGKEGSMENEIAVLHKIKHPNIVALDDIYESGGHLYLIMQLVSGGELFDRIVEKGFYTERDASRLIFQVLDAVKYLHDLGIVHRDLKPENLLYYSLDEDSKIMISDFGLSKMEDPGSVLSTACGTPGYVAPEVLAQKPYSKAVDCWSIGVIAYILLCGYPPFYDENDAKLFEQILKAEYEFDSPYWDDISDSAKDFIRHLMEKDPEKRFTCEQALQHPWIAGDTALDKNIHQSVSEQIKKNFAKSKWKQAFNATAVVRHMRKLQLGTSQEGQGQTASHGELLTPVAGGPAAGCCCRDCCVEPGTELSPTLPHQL

By remaining activity is commonly meant the signal under treatment as a percentage of the control signal. Regarding `NCCCC[C@H](NC(=O)[C@H](CC(=O)O)NC(=O)[C@H](CC(=O)O)NC(=O)[C@H](CC(=O)O)NC(=O)[C@H](CC(=O)O)NC(=O)[C@H](CC(=O)O)NC(=O)[C@@H](CC(=O)O)NC(=O)CCCCCCCn1cnc2c(Br)c(Br)c(Br)c(Br)c21)C(=O)O` [TBBI-OcA-(D-Asp)-(L-Asp)5-(L-Lys)-OH] (X1-[dD]DDDDDK-OH), the remaining activity at 1 µM was 102% in data set [1]; 90% in [2]; 62% in [3]; 61% in data set [4]; 116% in [5]; 64% in data set [6]. The remaining activity at 1 µM in [7] was determined as 105%; in data set [8] it was 93%; in data set [9], 98%; in data set [10], 71%; in data set [11], 30%; in data set [12], 66%.

The record behind these values is patent publication US9176064B2, “Bisubstrate fluorescent probes for protein kinase CK2” (University of Tartu, priority 2012, dated 2015).
